Source: patent publication US20140271457A1 (AbbVie / Abbott, published 2014)
Where a chain is given by its changes, count along the chain named.

B1: DVD3209 (bispecific antibody, IgG1)
VH: EVQLVESGGGLVQPGGSLRLSCAASGFSFSKYWLGWVRQAPGKGLEWVSDIYPGYDYTHYNEKFKDRFTISADTSKNTAYLQMNSLRAEDTAVYYCARSDGSSTYWGQGTLVTVSSASTKGPEVQLVESGGGLVQPGGSLRLSCAASGFTFSNYGVTWVRQAPGKGLEWVSMIWADGSTHYASSVKGRFTISRDNSKNTLYLQMNSLRAEDTAVYYCAREWQHGPVAYWGQGTLVTVSS
VL: DIQMTQSPSSLSASVGDRVTITCTSSQNIVHSNGNTYLEWYQQKPGKAPKLLIYKVSNRFSGVPSRFSGSGSGTDFTLTISSLQPEDFATYYCFQVSHVPYTFGQGTKVEIKRTVAAPDIQMTQSPSSLSASVGDRVTITCRASQLVSSAVAWYQQKPGKAPKLLIYWASARHTGVPSRFSGSGSGTDFTLTISSLQPEDFATYYCQQHYKTPFTFGQGTKLEIKR
B2: DVD3219 (bispecific antibody, IgG1)
VH: B1 VH with T157E, M172G, S183D, S184T, G187S
VL: B1 VL with R142K, A171T, R172L, K211R
B3: DVD3221 (bispecific antibody, IgG1)
VH: B1 VH with T157E, M172G, S183D, S184T, G187S
VL: DIQMTQSPSSLSASVGDRVTITCTSSQNIVHSNGNTYLEWYQQKPGKAPKLLIYKVSNRFSGVPSRFSGSGSGTDFTLTISSLQPEDFATYYCFQVSHVPYTFGQGTKVEIKRTVAAPSVFIFPPDIQMTQSPSSLSASVGDRVTITCKASQLVSSAVAWYQQKPGKAPKLLIYWASTLHTGVPSRFSGSGSGTDFTLTISSLQPEDFATYYCQQHYRTPFTFGQGTKLEIKR
B4: DVD3212 (bispecific antibody, IgG1)
VH: EVQLVESGGGLVQPGGSLRLSCAASGFSFSKYWLGWVRQAPGKGLEWVSDIYPGYDYTHYNEKFKDRFTISADTSKNTAYLQMNSLRAEDTAVYYCARSDGSSTYWGQGTLVTVSSASTKGPSVFPLAPEVQLVESGGGLVQPGGSLRLSCAASGFTFSNYGVTWVRQAPGKGLEWVSMIWADGSTHYASSVKGRFTISRDNSKNTLYLQMNSLRAEDTAVYYCAREWQHGPVAYWGQGTLVTVSS
VL: B1 VL
B5: DVD3211 (bispecific antibody, IgG1)
VH: B1 VH
VL: B3 VL with K149R, T178A, L179R, R218K
B6: DVD3208 (bispecific antibody, IgG1)
VH: EVQLVESGGGLVQPGGSLRLSCAASGFSFSKYWLGWVRQAPGKGLEWVSDIYPGYDYTHYNEKFKDRFTISADTSKNTAYLQMNSLRAEDTAVYYCARSDGSSTYWGQGTLVTVSSGGGGSGGGGSEVQLVESGGGLVQPGGSLRLSCAASGFTFSNYGVTWVRQAPGKGLEWVSMIWADGSTHYASSVKGRFTISRDNSKNTLYLQMNSLRAEDTAVYYCAREWQHGPVAYWGQGTLVTVSS
VL: DIQMTQSPSSLSASVGDRVTITCTSSQNIVHSNGNTYLEWYQQKPGKAPKLLIYKVSNRFSGVPSRFSGSGSGTDFTLTISSLQPEDFATYYCFQVSHVPYTFGQGTKVEIKRGGSGGGGSGDIQMTQSPSSLSASVGDRVTITCRASQLVSSAVAWYQQKPGKAPKLLIYWASARHTGVPSRFSGSGSGTDFTLTISSLQPEDFATYYCQQHYKTPFTFGQGTKLEIKR
B7: DVD3218 (bispecific antibody, IgG1)
VH: B6 VH with T161E, M176G, S187D, S188T, G191S
VL: B6 VL with R146K, A175T, R176L, K215R
B8: DVD3207 (bispecific antibody, IgG1)
VH: EVQLVESGGGLVQPGGSLRLSCAASGFTFSNYGVTWVRQAPGKGLEWVSMIWADGSTHYASSVKGRFTISRDNSKNTLYLQMNSLRAEDTAVYYCAREWQHGPVAYWGQGTLVTVSSASTKGPSVFPLAPEVQLVESGGGLVQPGGSLRLSCAASGFSFSKYWLGWVRQAPGKGLEWVSDIYPGYDYTHYNEKFKDRFTISADTSKNTAYLQMNSLRAEDTAVYYCARSDGSSTYWGQGTLVTVSS
VL: DIQMTQSPSSLSASVGDRVTITCRASQLVSSAVAWYQQKPGKAPKLLIYWASARHTGVPSRFSGSGSGTDFTLTISSLQPEDFATYYCQQHYKTPFTFGQGTKLEIKRTVAAPDIQMTQSPSSLSASVGDRVTITCTSSQNIVHSNGNTYLEWYQQKPGKAPKLLIYKVSNRFSGVPSRFSGSGSGTDFTLTISSLQPEDFATYYCFQVSHVPYTFGQGTKVEIKR
B9: DVD3217 (bispecific antibody, IgG1)
VH: B8 VH with T35E, M50G, S61D, S62T, G65S
VL: B8 VL with R24K, A53T, R54L, K93R
B10: DVD3206 (bispecific antibody, IgG1)
VH: EVQLVESGGGLVQPGGSLRLSCAASGFTFSNYGVTWVRQAPGKGLEWVSMIWADGSTHYASSVKGRFTISRDNSKNTLYLQMNSLRAEDTAVYYCAREWQHGPVAYWGQGTLVTVSSASTKGPEVQLVESGGGLVQPGGSLRLSCAASGFSFSKYWLGWVRQAPGKGLEWVSDIYPGYDYTHYNEKFKDRFTISADTSKNTAYLQMNSLRAEDTAVYYCARSDGSSTYWGQGTLVTVSS
VL: DIQMTQSPSSLSASVGDRVTITCRASQLVSSAVAWYQQKPGKAPKLLIYWASARHTGVPSRFSGSGSGTDFTLTISSLQPEDFATYYCQQHYKTPFTFGQGTKLEIKRTVAAPSVFIFPPDIQMTQSPSSLSASVGDRVTITCTSSQNIVHSNGNTYLEWYQQKPGKAPKLLIYKVSNRFSGVPSRFSGSGSGTDFTLTISSLQPEDFATYYCFQVSHVPYTFGQGTKVEIKR
B11: DVD3216 (bispecific antibody, IgG1)
VH: B10 VH with T35E, M50G, S61D, S62T, G65S
VL: B10 VL with R24K, A53T, R54L, K93R
B12: DVD3214 (bispecific antibody, IgG1)
VH: B10 VH with T35E, M50G, S61D, S62T, G65S
VL: B8 VL with R24K, A53T, R54L, K93R
B13: DVD3213 (bispecific antibody, IgG1)
VH: EVQLVESGGGLVQPGGSLRLSCAASGFTFSNYGVEWVRQAPGKGLEWVSGIWADGSTHYADTVKSRFTISRDNSKNTLYLQMNSLRAEDTAVYYCAREWQHGPVAYWGQGTLVTVSSGGGGSGGGGSEVQLVESGGGLVQPGGSLRLSCAASGFSFSKYWLGWVRQAPGKGLEWVSDIYPGYDYTHYNEKFKDRFTISADTSKNTAYLQMNSLRAEDTAVYYCARSDGSSTYWGQGTLVTVSS
VL: DIQMTQSPSSLSASVGDRVTITCKASQLVSSAVAWYQQKPGKAPKLLIYWASTLHTGVPSRFSGSGSGTDFTLTISSLQPEDFATYYCQQHYRTPFTFGQGTKLEIKRGGSGGGGSGDIQMTQSPSSLSASVGDRVTITCTSSQNIVHSNGNTYLEWYQQKPGKAPKLLIYKVSNRFSGVPSRFSGSGSGTDFTLTISSLQPEDFATYYCFQVSHVPYTFGQGTKVEIKR

Biological target: Recombinant Human TNF-α/TNFSF1A (human, UniProt P01375 77-233)
Test: cell-based or functional assay

Chain of Recombinant Human TNF-α/TNFSF1A (P01375 77-233 limits assumed): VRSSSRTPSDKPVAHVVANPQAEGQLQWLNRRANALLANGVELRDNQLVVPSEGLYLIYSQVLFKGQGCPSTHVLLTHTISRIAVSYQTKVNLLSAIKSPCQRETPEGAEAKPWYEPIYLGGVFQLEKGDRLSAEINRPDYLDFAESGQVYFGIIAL

Binder | C-Terminal VD huTNFα Neutralization Assay IC50 | N-Terminal VD huTNFα Neutralization Assay IC50
B1 | 536 pM | 
B2 | 2100 pM | 
B3 | 479 pM | 
B4 | 39 pM | 
B5 | 14 pM | 
B6 | 172 pM | 
B7 | 413 pM | 
B8 |  | 5 pM
B9 |  | 8 pM
B10 |  | 1 pM
B11 |  | 22 pM
B12 |  | 20 pM
B13 |  | 10 pM
